Experimental data taken from publication PMC11861921.

How the values were obtained:
[1] = molecular target: rat brain synaptosomes (sites that bind 125I-apamin); experiment: radioligand binding; competition with 125I-apamin on rat brain synaptosomes
[2] = molecular target: rat brain synaptosomes (sites that bind 125I-charybdotoxin); experiment: radioligand binding
[3] = molecular target: human Kv1.3 channel (human) (UniProt P22001)
Chain of UniProt P22001 (P22001 whole entry): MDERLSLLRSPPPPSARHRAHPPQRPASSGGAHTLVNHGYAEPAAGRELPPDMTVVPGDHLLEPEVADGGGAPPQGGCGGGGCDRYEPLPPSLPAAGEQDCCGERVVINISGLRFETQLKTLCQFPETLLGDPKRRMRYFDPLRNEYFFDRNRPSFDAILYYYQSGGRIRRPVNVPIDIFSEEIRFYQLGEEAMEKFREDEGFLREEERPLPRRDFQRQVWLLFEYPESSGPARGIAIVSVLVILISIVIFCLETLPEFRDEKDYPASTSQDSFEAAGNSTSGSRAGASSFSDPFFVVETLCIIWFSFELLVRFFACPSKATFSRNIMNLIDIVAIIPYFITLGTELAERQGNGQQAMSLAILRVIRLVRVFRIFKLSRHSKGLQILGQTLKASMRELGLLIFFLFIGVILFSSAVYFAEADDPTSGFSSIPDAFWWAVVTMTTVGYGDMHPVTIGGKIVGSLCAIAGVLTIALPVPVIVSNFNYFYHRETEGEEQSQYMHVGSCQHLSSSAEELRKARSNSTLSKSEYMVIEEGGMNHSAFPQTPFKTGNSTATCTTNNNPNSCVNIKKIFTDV

MTX1 (peptide)
IC50 [1]: 1.7 nM
IC50 [2]: 5 nM

Tb11a (peptide)
decrease in Kv1.3 maximum current, patch-clamp (voltage clamp, whole-cell configuration) on HEK293T cells [3]: 50%
